Molecular target: T1, human FSH receptor (human, UniProt P23945 18-695)
T1 sequence (looked up): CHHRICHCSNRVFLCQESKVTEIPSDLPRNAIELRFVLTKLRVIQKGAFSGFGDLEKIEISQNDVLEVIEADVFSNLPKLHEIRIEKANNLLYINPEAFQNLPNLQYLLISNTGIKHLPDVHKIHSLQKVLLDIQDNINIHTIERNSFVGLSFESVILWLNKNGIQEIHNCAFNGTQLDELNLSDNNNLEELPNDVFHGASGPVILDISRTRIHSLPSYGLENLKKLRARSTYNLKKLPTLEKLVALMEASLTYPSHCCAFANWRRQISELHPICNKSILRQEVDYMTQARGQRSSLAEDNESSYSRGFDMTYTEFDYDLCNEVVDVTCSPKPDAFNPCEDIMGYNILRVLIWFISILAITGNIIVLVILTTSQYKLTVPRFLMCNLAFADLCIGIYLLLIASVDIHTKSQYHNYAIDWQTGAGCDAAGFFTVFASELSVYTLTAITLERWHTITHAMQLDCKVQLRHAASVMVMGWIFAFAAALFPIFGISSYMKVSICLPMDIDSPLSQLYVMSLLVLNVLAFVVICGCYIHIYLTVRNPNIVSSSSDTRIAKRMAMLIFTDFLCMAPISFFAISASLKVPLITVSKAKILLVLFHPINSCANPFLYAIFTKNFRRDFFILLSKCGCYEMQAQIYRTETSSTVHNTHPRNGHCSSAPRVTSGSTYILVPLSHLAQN
Assay: cell-based or functional assay

B1: Clone 15C- α D3N/β GM1 (ligand)
chain 1: not shown
chain 2: NSCELTNITIAIEKEECRFCISINTTWCAGYCYTRDLVYKDPARPKIQKTCTFKNLTYETVRVPGCAHHADSLYTYPVATQCHCGKCDSDSTDCTVRGLGPSYCSFGEMKE
In the case of B1, the “EC50 M (cAMP production in CHO-FSHR cells)” value is reported as 414 pM.
